Literature values as cited in paper PMC8910494.

Biological target: FICD (Homo sapiens) (UniProt Q9BVA6)

Kd: 1.2 nM
Substance: FICD (from UniProt Q9BVA6)
